Experimental findings from article PMC6287933 (Methods in enzymology, 2018) are described below.

This assay deals with T1, Methylobacterium extorquens (Mex) PqqE (Methylobacterium extorquens, UniProt P71517 1-384).
T1 sequence (looked up): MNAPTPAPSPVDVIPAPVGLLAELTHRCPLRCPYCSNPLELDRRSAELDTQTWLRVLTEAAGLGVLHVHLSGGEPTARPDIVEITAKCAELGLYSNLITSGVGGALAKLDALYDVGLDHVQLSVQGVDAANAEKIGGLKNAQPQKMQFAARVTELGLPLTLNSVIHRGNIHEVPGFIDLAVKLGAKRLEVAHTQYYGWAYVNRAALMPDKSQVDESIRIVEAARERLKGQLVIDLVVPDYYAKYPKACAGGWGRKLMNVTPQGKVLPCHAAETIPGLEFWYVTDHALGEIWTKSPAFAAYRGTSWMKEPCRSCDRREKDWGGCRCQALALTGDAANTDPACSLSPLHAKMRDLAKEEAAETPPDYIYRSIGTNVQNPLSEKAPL
Kind of assay: native MS.

B1: Methylobacterium extorquens (Mex) PqqD (domain or fragment, Methylobacterium extorquens AM1, UniProt Q49150 280-372, looked up)
chain: EPTAFSGSDVPRLPRGVRLRFDEVRNKHVLLAPERTFDLDDNAVAVLKLVDGRNTVSQIAQILGQTYDADPAIIEADILPMLAGLAQKRVLER
As a reminder, the stoichiometry N is a count of units in the complex or per binding partner. Take B1: the “stoichiometry N” value came out at 1.
